Laboratory results: patent US20140087995A1 (published 2014)
Numbered stars: 1 amine (or outer) side, 2 acyl side, 3 side chain; on linkers, the order of the positions; unused ones are H or OH. Bridge positions count the residues as written; N and C are the ends. Side chains are listed from the residue outwards. Ends that are not written are not given here. * marks the point of attachment. C20 diacid = O=C(O)CCCCCCCCCCCCCCCCCCC(=O)*; γGlu = O=C(O)[C@H](CCC(=O)[*:2])N[*:1]; AEEA = NCCOCCOCC(=O)O

Assays:
rat calcitonin receptor [1] = molecular target: T1, rat calcitonin receptor (rat, UniProt P32214 25-516); test: ratio of IC50 on rat calcitonin receptor to IC50 on rat amylin receptor (reference m40)
T1 construct: whole, on cells; Membranes of transiently transfected BHK tk'ts 13 cells; also called rCTR; rat calcitonin (a) receptor
T1 sequence (looked up): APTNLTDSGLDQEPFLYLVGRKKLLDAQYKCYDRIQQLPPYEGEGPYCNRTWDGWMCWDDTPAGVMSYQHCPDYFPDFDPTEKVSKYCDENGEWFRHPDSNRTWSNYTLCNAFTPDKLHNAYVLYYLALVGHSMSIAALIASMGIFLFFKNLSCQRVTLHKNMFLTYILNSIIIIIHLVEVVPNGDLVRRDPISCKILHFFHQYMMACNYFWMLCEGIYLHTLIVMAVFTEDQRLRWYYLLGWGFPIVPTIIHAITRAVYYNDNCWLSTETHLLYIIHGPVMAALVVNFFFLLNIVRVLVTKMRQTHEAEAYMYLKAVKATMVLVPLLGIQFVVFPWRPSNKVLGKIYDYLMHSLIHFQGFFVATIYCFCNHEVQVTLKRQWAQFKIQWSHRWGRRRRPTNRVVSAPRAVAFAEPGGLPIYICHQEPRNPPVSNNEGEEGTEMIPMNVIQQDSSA

[2] = molecular target: T2, human calcitonin receptor (human, UniProt P30988 25-474); test: ratio of IC50 on human calcitonin receptor to IC50 on human amylin receptor (reference m42), SPA competition
T2 construct: whole, on cells; Membranes of stably transfected cells; also called hCTR; hCT
T2 sequence (looked up): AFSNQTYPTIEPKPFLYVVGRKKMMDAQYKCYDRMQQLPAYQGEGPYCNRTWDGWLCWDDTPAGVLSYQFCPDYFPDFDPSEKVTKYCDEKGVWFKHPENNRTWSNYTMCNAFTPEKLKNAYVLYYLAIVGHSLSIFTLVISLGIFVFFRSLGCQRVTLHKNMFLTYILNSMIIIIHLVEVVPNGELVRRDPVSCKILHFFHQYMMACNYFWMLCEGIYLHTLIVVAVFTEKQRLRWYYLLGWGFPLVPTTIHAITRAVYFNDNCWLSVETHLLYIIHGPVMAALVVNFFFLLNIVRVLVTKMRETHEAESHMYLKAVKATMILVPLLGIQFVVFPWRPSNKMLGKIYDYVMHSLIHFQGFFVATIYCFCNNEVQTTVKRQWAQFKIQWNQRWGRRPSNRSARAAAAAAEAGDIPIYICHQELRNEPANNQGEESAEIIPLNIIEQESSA
Method: The resulting pellet was resuspended, homogenized and centrifuged (20.000 rpm, 15 min) in a buffer containing 20 mM Na-HEPES and 0.1 mM EDTA (pH 7.4, buffer 2). The resulting pellet was resuspended in buffer 2 and protein concentration was measured (BCA protein Assay, Pierce). The homogenate was kept cold during the whole procedure. The membranes were kept at −80° C. until use. The assay was performed in a 384 well Optiplate (PerkinElmer) in a total volume of 40 ul. Membranes were mixed with SPA beads. Final concentration of membranes 35 ng/μL final and SPA beads was 0.05 mg/well. Test-compounds were dissolved in DMSO and further diluted in assay buffer (50 mM Hepes, pH 7.4, 1 mM CaCl2, 5 mM MgCl₂, 0.1% OA and 0.02% Tween20). […] The final mixture was incubated with shaking at 400 rpm for 120 min at 25° C. prior to centrifugation (1500 rpm, 10 min). Samples were analyzed on TopCounter™ (Packard). The IC₅₀ was calculated using (one site binding competition analysis) GraphPad Prism5 as a measure of receptor affinity.
Membranes were prepared in the following way; the cells were rinsed with PBS and incubated with Versene for approximately 5 min before harvesting. The cells were flushed with PBS and the cell-suspension was centrifuged for 5 min at 1000 rpm. Cells were homogenized (Ultrathurrax) in a buffer containing 20 mM Na-HEPES and 10 mM EDTA (pH 7.4) and centrifuged at 20.000 rpm for 15 min. The resulting pellet was resuspended, homogenized and centrifuged (20.000 rpm, 15 min) in a buffer containing 20 mM Na-HEPES and 0.1 mM EDTA (pH 7.4, buffer 2). The resulting pellet was resuspended in buffer 2 and protein concentration was measured (BCA protein Assay, Pierce). The homogenate was kept cold during the whole procedure. The membranes were kept at −80° C. until use. Assay was performed in a 384 well Optiplate (PerkinElmer) in a total volume of 40 ul. Membranes were mixed with SPA beads.

rat calcitonin receptor [3] = molecular target: T1, rat calcitonin receptor; test: SPA competition with 125I-calcitonin on membranes of BHK tk'ts 13 cells with rat calcitonin receptor (Assay VIII)
[4] = molecular target: T3, rat amylin receptor (rat calcitonin receptor + rat RAMP 3) (rat, UniProt P32214 25-516; Q9JJ73 23-147); test: SPA competition with 125I-rat amylin on membranes of BHK tk'ts 13 cells with rat calcitonin receptor + rat RAMP3 (Assay VI)
T3 construct: whole, on cells; Membranes of transiently transfected BHK tk'ts 13 cells; also called rAmylin-R; rat amylin 3(a) receptor
T3 sequence (looked up) 1: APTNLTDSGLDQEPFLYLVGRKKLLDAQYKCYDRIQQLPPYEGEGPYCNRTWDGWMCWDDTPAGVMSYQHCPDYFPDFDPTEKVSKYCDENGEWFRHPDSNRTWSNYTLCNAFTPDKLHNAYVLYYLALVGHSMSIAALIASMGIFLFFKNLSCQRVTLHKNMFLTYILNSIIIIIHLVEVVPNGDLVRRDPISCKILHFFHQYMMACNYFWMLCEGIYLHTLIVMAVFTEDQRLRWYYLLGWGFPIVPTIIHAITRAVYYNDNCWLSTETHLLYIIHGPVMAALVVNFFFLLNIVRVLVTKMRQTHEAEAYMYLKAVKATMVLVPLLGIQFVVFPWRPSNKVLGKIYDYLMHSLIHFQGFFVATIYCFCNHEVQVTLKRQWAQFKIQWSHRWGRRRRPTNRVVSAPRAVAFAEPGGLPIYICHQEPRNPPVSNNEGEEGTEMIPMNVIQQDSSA
T3 sequence (looked up) 2: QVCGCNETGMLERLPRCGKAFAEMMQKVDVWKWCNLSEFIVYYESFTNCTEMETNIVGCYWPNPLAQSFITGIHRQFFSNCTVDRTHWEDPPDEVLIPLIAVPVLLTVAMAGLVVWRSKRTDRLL

rat calcitonin receptor [5] = molecular target: T4, rat calcitonin receptor (rat, UniProt P32214 25-516); test: ratio of binding IC50s: rat calcitonin receptor over rat amylin receptor (reference)
T4 construct: whole, on cells; also called rCTR; rat calcitonin (a) receptor
T4 sequence (looked up): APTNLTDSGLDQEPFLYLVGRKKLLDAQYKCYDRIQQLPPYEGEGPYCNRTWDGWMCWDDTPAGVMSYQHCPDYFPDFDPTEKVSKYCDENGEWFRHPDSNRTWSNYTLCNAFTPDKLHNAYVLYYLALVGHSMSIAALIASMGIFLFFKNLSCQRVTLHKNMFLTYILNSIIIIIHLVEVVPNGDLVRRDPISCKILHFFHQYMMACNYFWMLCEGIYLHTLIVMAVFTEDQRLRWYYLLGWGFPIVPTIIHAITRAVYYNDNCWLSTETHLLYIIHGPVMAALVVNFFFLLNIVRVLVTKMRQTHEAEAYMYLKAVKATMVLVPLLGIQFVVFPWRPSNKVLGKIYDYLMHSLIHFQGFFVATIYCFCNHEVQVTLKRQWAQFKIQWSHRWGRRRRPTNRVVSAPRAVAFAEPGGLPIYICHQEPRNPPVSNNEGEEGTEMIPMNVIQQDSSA

[6] = molecular target: T5, human calcitonin receptor (human, UniProt P30988 25-474); test: ratio of binding IC50s: human calcitonin receptor over human amylin receptor (reference)
T5 construct: whole, on cells; also called hCTR; hCT
T5 sequence (looked up): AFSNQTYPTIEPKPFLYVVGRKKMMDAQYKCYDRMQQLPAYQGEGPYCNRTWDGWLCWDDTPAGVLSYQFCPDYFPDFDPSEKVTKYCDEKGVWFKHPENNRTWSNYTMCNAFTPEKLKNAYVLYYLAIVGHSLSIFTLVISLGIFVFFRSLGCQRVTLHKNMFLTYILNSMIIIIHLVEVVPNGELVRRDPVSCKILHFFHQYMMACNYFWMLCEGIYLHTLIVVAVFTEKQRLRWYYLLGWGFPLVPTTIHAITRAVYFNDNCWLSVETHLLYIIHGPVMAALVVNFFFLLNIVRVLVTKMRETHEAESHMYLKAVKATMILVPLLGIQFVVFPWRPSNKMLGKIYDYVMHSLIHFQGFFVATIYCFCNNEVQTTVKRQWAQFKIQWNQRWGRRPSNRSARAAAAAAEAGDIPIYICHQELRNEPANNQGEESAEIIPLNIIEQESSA
Method in brief: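 IC₅₀ values were derived by one-site competition analysis of SPA counts. Cell membranes (35 ng/μL) with SPA beads were incubated with test compounds for 120 min at 25° C in Hepes buffer, pH 7.4, containing CaCl2, MgCl₂, OA and Tween20.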

rat calcitonin receptor [7] = molecular target: T4, rat calcitonin receptor; test: SPA competition with 125I-calcitonin, membranes of BHK cells with rat calcitonin receptor (Assay VIII)
[8] = molecular target: T6, rat amylin receptor (rat calcitonin receptor + rat RAMP 3) (rat, UniProt P32214 25-516; Q9JJ73 23-147); test: SPA competition with 125I-rat amylin, membranes of BHK cells with rat calcitonin receptor + rat RAMP3 (Assay VI)
T6 construct: whole, on cells; also called rAmylin-R; rat amylin 3(a) receptor
T6 sequence (looked up) 1: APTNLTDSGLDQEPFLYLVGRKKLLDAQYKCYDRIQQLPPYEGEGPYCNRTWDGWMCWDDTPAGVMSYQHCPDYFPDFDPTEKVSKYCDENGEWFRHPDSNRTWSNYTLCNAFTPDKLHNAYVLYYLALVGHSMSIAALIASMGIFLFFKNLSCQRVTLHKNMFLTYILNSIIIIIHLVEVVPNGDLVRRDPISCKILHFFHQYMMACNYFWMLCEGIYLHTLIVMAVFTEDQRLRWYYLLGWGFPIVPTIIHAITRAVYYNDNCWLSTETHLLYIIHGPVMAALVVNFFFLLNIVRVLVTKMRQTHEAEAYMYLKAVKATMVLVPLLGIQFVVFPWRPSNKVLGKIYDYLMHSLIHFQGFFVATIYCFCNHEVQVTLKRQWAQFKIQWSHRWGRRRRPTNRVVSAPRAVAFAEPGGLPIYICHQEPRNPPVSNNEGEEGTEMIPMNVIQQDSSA
T6 sequence (looked up) 2: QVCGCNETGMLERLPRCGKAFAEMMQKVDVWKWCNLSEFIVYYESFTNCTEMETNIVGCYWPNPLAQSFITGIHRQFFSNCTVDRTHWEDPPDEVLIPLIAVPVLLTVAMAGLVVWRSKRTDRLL

Binder | Ratio rCT/rAmylin binding (rat calcitonin receptor [1]) | Ratio hCT/hAmylin binding [2] | IC50 (rat calcitonin receptor [3]) [nM] | IC50 [4] [nM] | Ratio rCT/rAmylin binding (rat calcitonin receptor [5]) | Ratio hCT/hAmylin binding [6] | IC50 (rat calcitonin receptor [7]) [nM] | IC50 [8] [nM]
K([AEEA-C20 diacid])CNTATCATQRLANFLRHSSPNFGAIPSSTNVGHNTY-NH2 (disulfide 2-7; N-terminus assumed; SMILES CC[C@H](C)[C@H](NC(=O)[C@H](C)NC(=O)CNC(=O)[C@H](Cc1ccccc1)NC(=O)[C@H](CC(N)=O)NC(=O)[C@@H]1CCCN1C(=O)[C@H](CO)NC(=O)[C@H](CO)NC(=O)[C@H](Cc1c[nH]cn1)NC(=O)[C@H](CCCNC(=N)N)NC(=O)[C@H](CC(C)C)NC(=O)[C@H](Cc1ccccc1)NC(=O)[C@H](CC(N)=O)NC(=O)[C@H](C)NC(=O)[C@H](CC(C)C)NC(=O)[C@H](CCCNC(=N)N)NC(=O)[C@H](CCC(N)=O)NC(=O)[C@@H](NC(=O)[C@H](C)NC(=O)[C@@H]1CSSC[C@H](NC(=O)[C@@H](N)CCCCNC(=O)COCCOCCNC(=O)CCCCCCCCCCCCCCCCCCC(=O)O)C(=O)N[C@@H](CC(N)=O)C(=O)N[C@@H]([C@@H](C)O)C(=O)N[C@@H](C)C(=O)N[C@@H]([C@@H](C)O)C(=O)N1)[C@@H](C)O)C(=O)N1CCC[C@H]1C(=O)N[C@@H](CO)C(=O)N[C@@H](CO)C(=O)N[C@H](C(=O)N[C@@H](CC(N)=O)C(=O)N[C@H](C(=O)NCC(=O)N[C@@H](Cc1c[nH]cn1)C(=O)N[C@@H](CC(N)=O)C(=O)N[C@H](C(=O)N[C@@H](Cc1ccc(O)cc1)C(N)=O)[C@@H](C)O)C(C)C)[C@@H](C)O, Synthetic acylated analogue of human amylin; also called compound 91) [N^ε1-[2-[2-[2-(19-carboxynonadecanoylamino)ethoxy]ethoxy]acetyl]-[Arg17,Pro21,Pro27,His34]-h-amylin] | 76.3 | 101 | 29.4 | 0.386 | – | – | – | –
K([γGlu-C20 diacid])CNTATCATQRLAHFLRHSSPNFGAIPSSTNVGSNTY-NH2 (disulfide 2-7; N-terminus assumed; SMILES CC[C@H](C)[C@H](NC(=O)[C@H](C)NC(=O)CNC(=O)[C@H](Cc1ccccc1)NC(=O)[C@H](CC(N)=O)NC(=O)[C@@H]1CCCN1C(=O)[C@H](CO)NC(=O)[C@H](CO)NC(=O)[C@H](Cc1c[nH]cn1)NC(=O)[C@H](CCCNC(=N)N)NC(=O)[C@H](CC(C)C)NC(=O)[C@H](Cc1ccccc1)NC(=O)[C@H](Cc1c[nH]cn1)NC(=O)[C@H](C)NC(=O)[C@H](CC(C)C)NC(=O)[C@H](CCCNC(=N)N)NC(=O)[C@H](CCC(N)=O)NC(=O)[C@@H](NC(=O)[C@H](C)NC(=O)[C@@H]1CSSC[C@H](NC(=O)[C@@H](N)CCCCNC(=O)CC[C@H](NC(=O)CCCCCCCCCCCCCCCCCCC(=O)O)C(=O)O)C(=O)N[C@@H](CC(N)=O)C(=O)N[C@@H]([C@@H](C)O)C(=O)N[C@@H](C)C(=O)N[C@@H]([C@@H](C)O)C(=O)N1)[C@@H](C)O)C(=O)N1CCC[C@H]1C(=O)N[C@@H](CO)C(=O)N[C@@H](CO)C(=O)N[C@H](C(=O)N[C@@H](CC(N)=O)C(=O)N[C@H](C(=O)NCC(=O)N[C@@H](CO)C(=O)N[C@@H](CC(N)=O)C(=O)N[C@H](C(=O)N[C@@H](Cc1ccc(O)cc1)C(N)=O)[C@@H](C)O)C(C)C)[C@@H](C)O, synthetic analogue of human amylin; also called compound 70) [N^ε1-[(4S)-4-carboxy-4-(19-carboxynonadecanoylamino)butanoyl]-[His14,Arg17,Pro21,Pro27]-h-amylin] | – | – | – | – | 96.5 | 60.8 | 34.2 | 0.355
